Reference: patent US20220041738A1 (SAITAMA MEDICAL UNIVERSITY, published 2022)
Numbering of substitutions follows the chain as printed. Blank lines part the entries; values can stand above or below the binder they belong to.

How the values were obtained:
Assay in all cases: immunofluorescence on transfected, formalin-fixed C2C12 cells, IgG at 10 µg/mL, Alexa 594 anti-rat IgG
[1] = target: T1, wild-type human ALK2 on cells (cDNA in pcDEF3) (human, UniProt Q04771 21-509)
T1 construct: also called wild-type ALK2; ALK2 (WT)
T1 sequence: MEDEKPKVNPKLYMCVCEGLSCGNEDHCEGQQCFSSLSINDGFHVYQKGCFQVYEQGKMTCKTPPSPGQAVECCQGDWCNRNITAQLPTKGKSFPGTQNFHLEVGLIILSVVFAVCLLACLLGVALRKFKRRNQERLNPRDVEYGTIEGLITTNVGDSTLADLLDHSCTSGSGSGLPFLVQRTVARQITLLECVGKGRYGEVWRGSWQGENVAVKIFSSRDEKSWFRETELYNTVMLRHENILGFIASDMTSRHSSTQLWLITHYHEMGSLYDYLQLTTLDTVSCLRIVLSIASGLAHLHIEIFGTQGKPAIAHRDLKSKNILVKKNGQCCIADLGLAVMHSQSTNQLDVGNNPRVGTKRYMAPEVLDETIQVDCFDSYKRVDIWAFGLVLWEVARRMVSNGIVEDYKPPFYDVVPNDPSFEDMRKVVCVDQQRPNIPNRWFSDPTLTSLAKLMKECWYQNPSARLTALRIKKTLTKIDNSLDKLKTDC
Protocol: (§1) Mouse C2C12 cells were seeded into a 96-well plate (Greiner Bio-One) at 0.5×10³ cells/well, and cultured in 15% FBS-containing DMEM medium overnight under the conditions of 5% CO₂ at 37° C. On the following day, the C2C12 cells were transfected with each of a wild-type human ALK2 cDNA integrated into pcDEF3; pcDEF3/human ALK2-L196P, pcDEF3/human ALK2-P197_F198delinsL, pcDEF3/human ALK2-R202I, pcDEF3/human ALK2-R206H, pcDEF3/human ALK2-Q207E, pcDEF3/human ALK2-R258S, pcDEF3/human ALK2-G325A, pcDEF3/human ALK2-G328E, pcDEF3/human ALK2-G328R, pcDEF3/human ALK2-G328W, pcDEF3/human ALK2-G356D, and pcDEF3/human ALK2-R375P, which are variants identified in FOP; and pcDEF3 as a control, using Lipofectamine 2000 (Invitrogen), and further cultured overnight.
(§2) The C2C12 cells were fixed with 10% neutral formalin (Nacalai Tesque, Japan) for 20 minutes at room temperature, and then blocked with 10% goat normal serum for 30 minutes. After the blocking agent was removed, purified IgG diluted to 10 μg/mL with the blocking agent was added, and the cells were left for 1 hour at room temperature. After the cells were washed with PBS three times, Goat Alexa 594-conjugated anti-rat IgG (Invitrogen) diluted to 1:1000 with the blocking agent was added, and the cells were left for 1 hour at room temperature. After the cells were washed with PBS three times, the cells were fixed with 10% neutral formalin for 15 minutes at room temperature, and nuclear-stained with DAPI (LifeTechnologies). Fluorescent signals were analyzed with a fluorescence microscope BZ-9000 (Keyence).

[2] = target: T2, human ALK2-P197_F198delinsL on cells (human, UniProt Q04771 21-509)
T2 construct: also called delP197_F198insL
T2 sequence: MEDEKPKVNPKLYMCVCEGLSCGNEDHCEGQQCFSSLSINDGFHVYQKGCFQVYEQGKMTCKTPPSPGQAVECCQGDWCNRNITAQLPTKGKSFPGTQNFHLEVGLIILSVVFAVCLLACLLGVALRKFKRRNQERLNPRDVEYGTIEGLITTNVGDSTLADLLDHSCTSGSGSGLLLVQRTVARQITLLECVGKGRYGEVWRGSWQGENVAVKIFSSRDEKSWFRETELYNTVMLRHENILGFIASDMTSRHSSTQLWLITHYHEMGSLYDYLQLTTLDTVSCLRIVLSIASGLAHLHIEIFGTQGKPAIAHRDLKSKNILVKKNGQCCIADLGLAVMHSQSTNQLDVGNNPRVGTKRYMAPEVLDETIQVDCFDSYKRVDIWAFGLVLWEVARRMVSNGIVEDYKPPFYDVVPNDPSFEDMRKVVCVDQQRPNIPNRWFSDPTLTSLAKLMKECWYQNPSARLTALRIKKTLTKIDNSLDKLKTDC
Protocol: as §1, §2

[3] = target: T3, human ALK2-R206H on cells (human, UniProt Q04771 21-509)
T3 sequence: T1 sequence with R186H
Protocol: as §1, §2

[4] = target: T4, human ALK2-G325A on cells (human, UniProt Q04771 21-509)
T4 sequence: T1 sequence with G305A
Protocol: as §1, §2

binding result [1]: binds
binding result [2]: binds
binding result [3]: binds
binding result [4]: binds
B1: rat anti-ALK2 monoclonal antibody A2-25C (antibody, V domains shown)
VH: EVQLVESGGGLVQPGGSLKLSCAASGFTFSYYAMSWVCQAPTKGLEWVASISRGGDNTYYRDTVKGRFTTSRDNAKNTLYLQMDSLRSEDTATYYCARLNYNNYFDYWGQGVMVTVSS
VL: DIQMTQSPASLSASLEEIVTITCQASQDIGNWLSWYQQKPGKSPQLLIYGATSLADGVPSRFSGSRSGTQYSLKISRLRVEDIGIYYCLQAYSAPFTFGSGTKLEIKR
notes: Rat monoclonal IgG from a hybridoma; also called 25C11

binding result [1]: binds
binding result [2]: binds
binding result [3]: binds
binding result [4]: binds
B2: rat anti-ALK2 monoclonal antibody A2-27D (antibody, V domains shown)
VH: EVQLVESGGGLVQPGRSLKLSCLASGSTFSNYGMKWIRQAPGKGLEWVASISRSSTYIYYADTVKGRFTISRDNARNTLYLQMTSLRSEDTALYYCAAAISTPFYWYFDFWGPGTVVTVSS
VL: EIVLTQSPTTMAASPGEKVTLNCLASSSVSYMTWYQQKSGASPKLWIYGTSNLASGVPNRFSGSGSGTSYSLAISSMEAEDVATYYCLHLTSYPPYTFGAGTKLELKR
notes: Rat monoclonal IgG from a hybridoma; also called 27D11
